Reference: the supplement of paper PMC9112550, “Optimization of the antimicrobial peptide Bac7 by deep mutational scanning” (BMC Biology, 2022)

The sequences below were run on Escherichia coli TOP10 (assay: shrunken log2 fold change of peptide-encoding DNA abundance (4.5 h post-induction vs induction); higher = less antimicrobial activity (less host growth inhibition)). Conditions: time post-induction: 4.5 h; library: site-saturation at positions 5, 18, 19, 20.
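Note: peptides expressed intracellularly from a pBAD plasmid library in pooled LB shake-flask culture, induced with 0.3% L-arabinose, DNA abundance read by NGS, three biological replicates, DESeq2 with apeglm shrinkage.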

| Sequence | shrunken log2 fold change |
| --- | --- |
| RRIRHRPPRLPRPRPRPQLIPRP | 0.00748 |
| RRIRDRPPRLPRPRPRPYACPRP | 0.0334 |
| RRIRARPPRLPRPRPRPSGFPRP | 0.0172 |
| RRIRGRPPRLPRPRPRPFPPPRP | 0.378 |
| RRIRYRPPRLPRPRPRPLWGPRP | -0.203 |
| RRIRQRPPRLPRPRPRPFTMPRP | -0.141 |
| RRIRQRPPRLPRPRPRPLFRPRP | -0.227 |
| RRIRRRPPRLPRPRPRPMETPRP | -0.12 |
| RRIRVRPPRLPRPRPRPWFHPRP | -0.711 |
| RRIRARPPRLPRPRPRPWQIPRP | -0.0641 |
| RRIRYRPPRLPRPRPRPAEGPRP | -0.169 |
| RRIRNRPPRLPRPRPRPAGHPRP | 0.133 |
| RRIRGRPPRLPRPRPRPRVTPRP | 0.744 |
| RRIRCRPPRLPRPRPRPLCRPRP | 0.0269 |
| RRIRMRPPRLPRPRPRPHIGPRP | -0.00118 |
| RRIRIRPPRLPRPRPRPHDQPRP | -0.573 |
| RRIRSRPPRLPRPRPRPANEPRP | 0.0433 |
| RRIRPRPPRLPRPRPRPYRKPRP | 0.0208 |
| RRIRDRPPRLPRPRPRPCKKPRP | -0.00395 |
| RRIRRRPPRLPRPRPRPVDMPRP | 0.0522 |
| RRIRRRPPRLPRPRPRPHKYPRP | -0.192 |
| RRIRCRPPRLPRPRPRPNNKPRP | -0.71 |
| RRIRYRPPRLPRPRPRPKKTPRP | -0.0419 |
| RRIRRRPPRLPRPRPRPPRIPRP | 1.08 |
| RRIRARPPRLPRPRPRPDDWPRP | 1.12 |

| Sequence | shrunken log2 fold change |
| --- | --- |
| RRIRVRPPRLPRPRPRPEWNPRP | -0.272 |
| RRIRERPPRLPRPRPRPTNFPRP | -0.00437 |
| RRIRDRPPRLPRPRPRPMRSPRP | -0.00884 |
| RRIRCRPPRLPRPRPRPHCGPRP | -0.156 |
| RRIRIRPPRLPRPRPRPKFPPRP | -0.204 |
| RRIRFRPPRLPRPRPRPEDKPRP | -0.0503 |
| RRIRPRPPRLPRPRPRPIVSPRP | -0.117 |
| RRIRRRPPRLPRPRPRPKYGPRP | -0.000734 |
| RRIRVRPPRLPRPRPRPEFDPRP | 0.197 |
| RRIRERPPRLPRPRPRPHKIPRP | -0.13 |
| RRIRKRPPRLPRPRPRPMHYPRP | -0.0252 |
| RRIRFRPPRLPRPRPRPFFHPRP | -0.18 |
| RRIRHRPPRLPRPRPRPSCYPRP | -1.1 |
| RRIRHRPPRLPRPRPRPTAKPRP | 0.0616 |
| RRIRQRPPRLPRPRPRPNQGPRP | 0.084 |
| RRIRPRPPRLPRPRPRPRICPRP | 0.0562 |
| RRIRQRPPRLPRPRPRPWFTPRP | -0.356 |
| RRIRFRPPRLPRPRPRPVDFPRP | -0.452 |
| RRIRMRPPRLPRPRPRPPETPRP | 0.807 |
| RRIRQRPPRLPRPRPRPHEVPRP | -0.0426 |
| RRIRWRPPRLPRPRPRPEDFPRP | 0.0629 |
| RRIRPRPPRLPRPRPRPSYQPRP | -0.493 |
| RRIRYRPPRLPRPRPRPCWPPRP | 0.0499 |
| RRIRLRPPRLPRPRPRPKIWPRP | -0.0443 |
| RRIRQRPPRLPRPRPRPLQCPRP | -0.357 |

| Sequence | shrunken log2 fold change |
| --- | --- |
| RRIRGRPPRLPRPRPRPFCQPRP | 0.0716 |
| RRIRYRPPRLPRPRPRPKDRPRP | -0.109 |
| RRIRVRPPRLPRPRPRPMMSPRP | 0.00438 |
| RRIRDRPPRLPRPRPRPDNIPRP | -0.112 |
| RRIRNRPPRLPRPRPRPQFGPRP | -0.508 |
| RRIRNRPPRLPRPRPRPMNQPRP | -0.123 |
| RRIRERPPRLPRPRPRPPKAPRP | 0.312 |
| RRIRWRPPRLPRPRPRPQYNPRP | -0.554 |
| RRIRFRPPRLPRPRPRPWIFPRP | -0.00568 |
| RRIRERPPRLPRPRPRPQKLPRP | -0.69 |
| RRIRNRPPRLPRPRPRPCGLPRP | 0.0441 |
| RRIRVRPPRLPRPRPRPCRYPRP | 0.0933 |
| RRIRFRPPRLPRPRPRPRAKPRP | 0.189 |
| RRIRNRPPRLPRPRPRPGNLPRP | -0.186 |
| RRIRRRPPRLPRPRPRPCWKPRP | 0.0297 |
| RRIRGRPPRLPRPRPRPRRNPRP | 0.609 |
| RRIRNRPPRLPRPRPRPRWAPRP | 0.417 |
| RRIRHRPPRLPRPRPRPTQMPRP | 0.222 |
| RRIRNRPPRLPRPRPRPICCPRP | -0.062 |
| RRIRTRPPRLPRPRPRPIGLPRP | -0.115 |
| RRIRTRPPRLPRPRPRPPPAPRP | 0.746 |
| RRIRRRPPRLPRPRPRPFHWPRP | -0.111 |
| RRIRWRPPRLPRPRPRPLHQPRP | 0.0809 |
| RRIRNRPPRLPRPRPRPMPDPRP | 0.259 |
| RRIRLRPPRLPRPRPRPCVRPRP | 0.0511 |

| Sequence | shrunken log2 fold change |
| --- | --- |
| RRIRDRPPRLPRPRPRPCAAPRP | 0.704 |
| RRIRWRPPRLPRPRPRPNNAPRP | -0.295 |
| RRIRNRPPRLPRPRPRPLCWPRP | -0.198 |
| RRIRERPPRLPRPRPRPWPWPRP | -0.233 |
| RRIRSRPPRLPRPRPRPTMHPRP | 0.0312 |
| RRIRCRPPRLPRPRPRPASSPRP | 0.124 |
| RRIRVRPPRLPRPRPRPVIYPRP | -0.39 |
| RRIRWRPPRLPRPRPRPMCEPRP | -0.0562 |
| RRIRPRPPRLPRPRPRPNMHPRP | -0.329 |
| RRIRMRPPRLPRPRPRPPQFPRP | 0.0882 |
| RRIRSRPPRLPRPRPRPNQDPRP | -0.3 |
| RRIRSRPPRLPRPRPRPAVPPRP | 0.168 |
| RRIRRRPPRLPRPRPRPFYAPRP | -0.0129 |
| RRIRWRPPRLPRPRPRPGQAPRP | 1.06 |
| RRIRGRPPRLPRPRPRPDCQPRP | 0.662 |
| RRIRVRPPRLPRPRPRPSYKPRP | -0.581 |
| RRIRWRPPRLPRPRPRPLSSPRP | -0.0482 |
| RRIRHRPPRLPRPRPRPKHQPRP | -0.195 |
| RRIRWRPPRLPRPRPRPWSRPRP | -0.132 |
| RRIRNRPPRLPRPRPRPYSCPRP | -1.1 |
| RRIRFRPPRLPRPRPRPGHEPRP | -0.196 |
| RRIRTRPPRLPRPRPRPWKQPRP | 0.0162 |
| RRIRERPPRLPRPRPRPITQPRP | 0.0291 |
| RRIRKRPPRLPRPRPRPANQPRP | 0.239 |
| RRIRERPPRLPRPRPRPVFHPRP | -0.238 |

| Sequence | shrunken log2 fold change |
| --- | --- |
| RRIRERPPRLPRPRPRPCQLPRP | -0.265 |
| RRIRERPPRLPRPRPRPQIAPRP | 0.0377 |
| RRIRHRPPRLPRPRPRPHHRPRP | -0.257 |
| RRIRCRPPRLPRPRPRPPKKPRP | 0.132 |
| RRIRPRPPRLPRPRPRPHNTPRP | -0.481 |
| RRIRVRPPRLPRPRPRPQPFPRP | -0.0258 |
| RRIRKRPPRLPRPRPRPSIEPRP | 0.0829 |
| RRIRDRPPRLPRPRPRPEAMPRP | -0.00943 |
| RRIRYRPPRLPRPRPRPTMEPRP | 0.0667 |
| RRIRERPPRLPRPRPRPTFMPRP | -0.157 |
| RRIRTRPPRLPRPRPRPATFPRP | -0.129 |
| RRIRNRPPRLPRPRPRPTDTPRP | -0.08 |
| RRIRMRPPRLPRPRPRPAFIPRP | -0.398 |
| RRIRPRPPRLPRPRPRPAKPPRP | 0.196 |
| RRIRTRPPRLPRPRPRPGWEPRP | 0.0505 |
| RRIRNRPPRLPRPRPRPAYEPRP | -0.0122 |
| RRIRGRPPRLPRPRPRPPTFPRP | 0.572 |
| RRIRDRPPRLPRPRPRPCREPRP | 0.123 |
| RRIRIRPPRLPRPRPRPKTQPRP | -0.0269 |
| RRIRFRPPRLPRPRPRPTKCPRP | 0.0225 |
| RRIRARPPRLPRPRPRPTHCPRP | 0.518 |
| RRIRNRPPRLPRPRPRPWNRPRP | 0.0601 |
| RRIRFRPPRLPRPRPRPYEYPRP | -0.488 |
| RRIRVRPPRLPRPRPRPMYGPRP | -0.116 |
| RRIRCRPPRLPRPRPRPSIRPRP | -0.608 |

| Sequence | shrunken log2 fold change |
| --- | --- |
| RRIRTRPPRLPRPRPRPNMTPRP | -0.0848 |
| RRIRNRPPRLPRPRPRPNARPRP | 0.0522 |
| RRIRWRPPRLPRPRPRPGTNPRP | 0.243 |
| RRIRQRPPRLPRPRPRPWLCPRP | -0.0571 |
| RRIRARPPRLPRPRPRPSMMPRP | 0.162 |
| RRIRCRPPRLPRPRPRPIRNPRP | -0.182 |
| RRIRVRPPRLPRPRPRPSPWPRP | 0.021 |
| RRIRKRPPRLPRPRPRPLWSPRP | -0.014 |
| RRIRPRPPRLPRPRPRPTEMPRP | 0.218 |
| RRIRGRPPRLPRPRPRPPPTPRP | 1.47 |
| RRIRCRPPRLPRPRPRPAQLPRP | -0.169 |
| RRIRSRPPRLPRPRPRPPGRPRP | 0.482 |
| RRIRPRPPRLPRPRPRPVCDPRP | 0.333 |
| RRIRQRPPRLPRPRPRPPDQPRP | 1.82 |
| RRIRWRPPRLPRPRPRPMYMPRP | 0.0903 |
| RRIRFRPPRLPRPRPRPYDIPRP | -0.0365 |
| RRIRSRPPRLPRPRPRPPQHPRP | 0.184 |
| RRIRKRPPRLPRPRPRPDATPRP | 2.81 |
| RRIRLRPPRLPRPRPRPVEDPRP | 0.0985 |
| RRIRYRPPRLPRPRPRPWNKPRP | -0.00965 |
| RRIRPRPPRLPRPRPRPRWVPRP | 0.164 |
| RRIRKRPPRLPRPRPRPCFAPRP | 0.358 |
| RRIRARPPRLPRPRPRPLVIPRP | -0.152 |
| RRIRVRPPRLPRPRPRPIRAPRP | -0.109 |
| RRIRKRPPRLPRPRPRPDIIPRP | 0.194 |
